From PMC5566211

Legend:
Test in all cases: purified protein
Details in all cases: phosphate-buffered saline 50 mM, pH 7.0, 37 °C
[1] = tested on: C[C@H]1[C@H](NC(=O)/C(=N\OC(C)(C)C(=O)O)c2csc(N)n2)C(=O)N1S(=O)(=O)O
[2] = tested on: Cc1onc(-c2ccccc2)c1C(=O)N[C@@H]1C(=O)N2[C@@H]1SC(C)(C)[C@@H]2C(=O)O
[3] = tested on: CO/N=C(\C(=O)N[C@@H]1C(=O)N2C(C(=O)O)=C(COC(C)=O)CS[C@H]12)c1csc(N)n1
[4] = tested on: CO/N=C(\C(=O)N[C@@H]1C(=O)N2C(C(=O)O)=C(CSc3nc(=O)c(=O)[nH]n3C)CS[C@H]12)c1csc(N)n1
[5] = tested on: Cc1nnc(SCC2=C(C(=O)O)N3C(=O)[C@@H](NC(=O)Cn4cnnn4)[C@H]3SC2)s1
[6] = tested on: CC1=C(C(=O)O)N2C(=O)[C@@H](NC(=O)[C@H](N)C3=CCC=CC3)[C@H]2SC1
[7] = tested on: CCN1CCN(C(=O)N[C@@H](C(=O)N[C@@H]2C(=O)N3C(C(=O)O)=C(CSc4nnnn4C)CS[C@H]23)c2ccc(O)cc2)C(=O)C1=O
[8] = tested on: CO/N=C(\C(=O)N[C@@H]1C(=O)N2C(C(=O)[O-])=C(C[N+]3(C)CCCC3)CS[C@H]12)c1csc(N)n1
[9] = tested on: CC(=O)OCC1=C(C(=O)O)N2C(=O)[C@@H](NC(=O)Cc3cccs3)[C@H]2SC1
[10] = tested on: C[C@@H](O)[C@H]1C(=O)N2C(C(=O)O)=C(S[C@@H]3CN[C@H](C(=O)N(C)C)C3)[C@H](C)[C@H]12
[11] = tested on: CC(C)(O/N=C(\C(=O)N[C@@H]1C(=O)N2C(C(=O)[O-])=C(C[n+]3ccccc3)CS[C@H]12)c1csc(N)n1)C(=O)O

PAD-1 (Paramesorhizobium deserti)
Km [1]: 276.08 µM
kcat [1]: 39 s⁻¹
kcat/Km [1]: 141000 M⁻¹ s⁻¹
Km [2]: 383.96 µM
kcat [2]: 58.7 s⁻¹
kcat/Km [2]: 153000 M⁻¹ s⁻¹
Km [3]: 137.08 µM
kcat [3]: 20.1 s⁻¹
kcat/Km [3]: 146000 M⁻¹ s⁻¹
Km [4]: 90.84 µM
kcat [4]: 16.3 s⁻¹
kcat/Km [4]: 179000 M⁻¹ s⁻¹
Km [5]: 89.16 µM
kcat [5]: 22.6 s⁻¹
kcat/Km [5]: 253000 M⁻¹ s⁻¹
Km [6]: 347.9 µM
kcat [6]: 31.8 s⁻¹
kcat/Km [6]: 91300 M⁻¹ s⁻¹
Km [7]: 47.80 µM
kcat [7]: 15.1 s⁻¹
kcat/Km [7]: 315000 M⁻¹ s⁻¹
Km [8]: 108.40 µM
kcat [8]: 10.4 s⁻¹
kcat/Km [8]: 95900 M⁻¹ s⁻¹
Km [9]: 91.59 µM
kcat [9]: 15.2 s⁻¹
kcat/Km [9]: 166000 M⁻¹ s⁻¹
Km [10]: 389.69 µM
kcat [10]: 24.2 s⁻¹
kcat/Km [10]: 62200 M⁻¹ s⁻¹
Km [11]: 110.04 µM
kcat [11]: 12.1 s⁻¹
kcat/Km [11]: 110000 M⁻¹ s⁻¹
